Here are results for 15 sequences from the supplement of paper PMC10724198.

Series [1] relates to Saccharomyces cerevisiae. Briefly: protein stability index of tFT-peptide fusion (C-terminal peptide) (PSI (0-1 scale)); higher = more stable (slower turnover). As for the experimental part: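 MPS profiling in S. cerevisiae of the tFT-X12 degron library: putative degron peptides plus stable controls, 12 aa, fused to the C-terminus of a sfGFP-mCherry timer. Cells are FACS-sorted into 8 mCherry/sfGFP bins and deep-sequenced. PSI runs from 0 (unstable) to 1 (stable). Backgrounds are wild type, das1Δ and doa10Δ at 30 °C, and wild type, das1Δ, cdc34-1 and cdc53-1 at 37 °C; 2-3 technical replicates each.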

For series [2], the system named is Saccharomyces cerevisiae. The series is described as above. The conditions noted are these: genetic background: wild type; temperature: 30 C.
The mark [3] stands for this setting: genetic background: cdc34-1, temperature: 37 C.
[4] abbreviates: genetic background: cdc53-1, temperature: 37 C.
The mark [5] stands for this setting: genetic background: das1 deletion, temperature: 30 C.
Where [6] appears, read: genetic background: das1 deletion, temperature: 37 C.
Setting [7] is: genetic background: doa10 deletion, temperature: 30 C.
[8] abbreviates: genetic background: wild type, temperature: 30 C.
Where [9] appears, read: genetic background: wild type, temperature: 37 C.

± gives the standard deviation of the averaged measurements.
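Note: PSI is a weighted mean of sequencing reads over stability bins, variants kept only with over 10 reads, mCherry proximal and sfGFP distal, peptide attached via GGGS linker.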

For VGVSVVMVVEVP, the protein stability index was 0.0286 ± 0.0009 with Saccharomyces cerevisiae [1] (setting [3]); 0.0328 ± 0.00097 with Saccharomyces cerevisiae [1] (setting [4]); 0.0504 ± 0.005 with Saccharomyces cerevisiae [1] (setting [5]); 0.0524 ± 0.0097 with Saccharomyces cerevisiae [1] (setting [6]); 0.0409 ± 0.011 with Saccharomyces cerevisiae [1] (setting [7]); 0.042 ± 0.0027 with Saccharomyces cerevisiae [1] (setting [8]). Besides, the protein stability index in the series on Saccharomyces cerevisiae [1] (setting [9]) was 0.0384 ± 0.0064; in the series with Saccharomyces cerevisiae [2], 0.0948 ± 0.012.

For the sequence VGVVLWWVVLMV, the protein stability index in the series with Saccharomyces cerevisiae [1] (setting [3]) is 0.118 ± 0.014; with Saccharomyces cerevisiae [1] (setting [4]), 0.181 ± 0.0027; with Saccharomyces cerevisiae [1] (setting [5]) it was 0.184 ± 0.024; in the series on Saccharomyces cerevisiae [1] (setting [6]), 0.28 ± 0.0034; in the series on Saccharomyces cerevisiae [1] (setting [7]) it was 0.154 ± 0.012; with Saccharomyces cerevisiae [1] (setting [8]), 0.16 ± 0.029. Further, the results for the protein stability index in the series with Saccharomyces cerevisiae [1] (setting [9]) and with Saccharomyces cerevisiae [2] were 0.251 ± 0.0034 and 0.241 ± 0.017, respectively.

For the sequence VGYHCIVGVIFL, the protein stability index was 0.467 ± 0.031 in the series with Saccharomyces cerevisiae [1] (setting [3]); 0.491 ± 0.041 in the series on Saccharomyces cerevisiae [1] (setting [4]); 0.359 ± 0.036 with Saccharomyces cerevisiae [1] (setting [5]); 0.545 ± 0.0059 with Saccharomyces cerevisiae [1] (setting [6]); 0.326 ± 0.012 in the series with Saccharomyces cerevisiae [1] (setting [7]); 0.372 ± 0.013 in the series with Saccharomyces cerevisiae [1] (setting [8]). Besides, the results for the protein stability index in the series with Saccharomyces cerevisiae [1] (setting [9]) and with Saccharomyces cerevisiae [2] were 0.512 ± 0.015 and 0.524 ± 0.081, respectively.

With VIRFNSAPRFLV, the protein stability index with Saccharomyces cerevisiae [1] (setting [3]) came out at 0.614 ± 0.054; with Saccharomyces cerevisiae [1] (setting [4]), 0.7214 ± 0.0026; with Saccharomyces cerevisiae [1] (setting [5]), 0.629 ± 0.026; in the series with Saccharomyces cerevisiae [1] (setting [6]), 0.7443 ± 0.0009; in the series on Saccharomyces cerevisiae [1] (setting [7]), 0.108 ± 0.031; in the series on Saccharomyces cerevisiae [1] (setting [8]), 0.125 ± 0.016. Further, the protein stability index amounted to 0.236 ± 0.0043 in the series with Saccharomyces cerevisiae [1] (setting [9]) and 0.213 ± 0.047 in the series with Saccharomyces cerevisiae [2].

Turning to VIWIRMISFFVW, the protein stability index in the series with Saccharomyces cerevisiae [1] (setting [3]) amounted to 0.192 ± 0.035; with Saccharomyces cerevisiae [1] (setting [4]) it was 0.283 ± 0.024; in the series on Saccharomyces cerevisiae [1] (setting [5]), 0.2 ± 0.043; with Saccharomyces cerevisiae [1] (setting [6]), 0.35 ± 0.013; in the series with Saccharomyces cerevisiae [1] (setting [7]), 0.174 ± 0.01; in the series with Saccharomyces cerevisiae [1] (setting [8]), 0.188 ± 0.034. The protein stability index in the series with Saccharomyces cerevisiae [1] (setting [9]) was found to be 0.346 ± 0.048; in the series with Saccharomyces cerevisiae [2], 0.245 ± 0.015.

In the case of VIYNSALLLVRL, the protein stability index in the series with Saccharomyces cerevisiae [1] (setting [3]) amounted to 0.273 ± 0.031; in the series on Saccharomyces cerevisiae [1] (setting [4]), 0.225 ± 0.01; in the series with Saccharomyces cerevisiae [1] (setting [5]), 0.249 ± 0.031; with Saccharomyces cerevisiae [1] (setting [6]), 0.407 ± 0.037; in the series on Saccharomyces cerevisiae [1] (setting [7]), 0.325 ± 0.014; in the series on Saccharomyces cerevisiae [1] (setting [8]), 0.25 ± 0.023. Also, the protein stability index in the series with Saccharomyces cerevisiae [1] (setting [9]) was 0.386 ± 0.01; in the series with Saccharomyces cerevisiae [2], 0.391 ± 0.041.

Turning to VLAFFPLFFFLS, the protein stability index came out at 0.434 ± 0.035 in the series with Saccharomyces cerevisiae [1] (setting [3]); 0.5049 ± 0.0042 in the series with Saccharomyces cerevisiae [1] (setting [4]); 0.439 ± 0.033 in the series on Saccharomyces cerevisiae [1] (setting [5]); 0.5732 ± 0.0029 with Saccharomyces cerevisiae [1] (setting [6]); 0.144 ± 0.013 in the series on Saccharomyces cerevisiae [1] (setting [7]); 0.126 ± 0.015 with Saccharomyces cerevisiae [1] (setting [8]). Also, the results for the protein stability index with Saccharomyces cerevisiae [1] (setting [9]) and in the series on Saccharomyces cerevisiae [2] were 0.245 ± 0.0039 and 0.2054 ± 0.002, respectively.

On to VLGARWHWIYIA, for which the protein stability index with Saccharomyces cerevisiae [1] (setting [3]) amounted to 0.281 ± 0.071; in the series on Saccharomyces cerevisiae [1] (setting [4]), 0.526 ± 0.0082; in the series with Saccharomyces cerevisiae [1] (setting [5]), 0.501 ± 0.014; in the series on Saccharomyces cerevisiae [1] (setting [6]) it was 0.6636 ± 0.0012; with Saccharomyces cerevisiae [1] (setting [7]), 0.0782 ± 0.011; with Saccharomyces cerevisiae [1] (setting [8]), 0.078 ± 0.023. Further, the protein stability index with Saccharomyces cerevisiae [1] (setting [9]) was determined as 0.06742 ± 0.00037; in the series with Saccharomyces cerevisiae [2] it was 0.111 ± 0.024.

In the case of VLGLYSLLLSFF, the protein stability index in the series on Saccharomyces cerevisiae [1] (setting [3]) was determined as 0.567 ± 0.068; in the series with Saccharomyces cerevisiae [1] (setting [4]), 0.6627 ± 0.0015; with Saccharomyces cerevisiae [1] (setting [5]), 0.524 ± 0.034; in the series on Saccharomyces cerevisiae [1] (setting [6]) it was 0.644 ± 0.016; in the series on Saccharomyces cerevisiae [1] (setting [7]), 0.277 ± 0.013; in the series with Saccharomyces cerevisiae [1] (setting [8]), 0.305 ± 0.0096. The protein stability index turned out to be 0.4532 ± 0.0012 in the series on Saccharomyces cerevisiae [1] (setting [9]) and 0.337 ± 0.007 in the series on Saccharomyces cerevisiae [2].

Regarding VLGRCWWIVSDL, the protein stability index in the series with Saccharomyces cerevisiae [1] (setting [3]) is 0.736 ± 0.037; with Saccharomyces cerevisiae [1] (setting [4]), 0.782 ± 0.011; in the series with Saccharomyces cerevisiae [1] (setting [5]), 0.661 ± 0.016; in the series on Saccharomyces cerevisiae [1] (setting [6]), 0.763 ± 0.015; in the series on Saccharomyces cerevisiae [1] (setting [7]) it was 0.659 ± 0.025; in the series with Saccharomyces cerevisiae [1] (setting [8]), 0.67 ± 0.024. Besides, the results for the protein stability index with Saccharomyces cerevisiae [1] (setting [9]) and in the series with Saccharomyces cerevisiae [2] were 0.755 ± 0.0049 and 0.566 ± 0.19, respectively.

On to VLISLVLLFRCW, for which the protein stability index with Saccharomyces cerevisiae [1] (setting [3]) amounted to 0.23 ± 0.015; in the series on Saccharomyces cerevisiae [1] (setting [4]), 0.244 ± 0.038; in the series with Saccharomyces cerevisiae [1] (setting [5]), 0.262 ± 0.023; in the series with Saccharomyces cerevisiae [1] (setting [6]) it was 0.386 ± 0.016; in the series with Saccharomyces cerevisiae [1] (setting [7]), 0.307 ± 0.028; with Saccharomyces cerevisiae [1] (setting [8]), 0.248 ± 0.03. The protein stability index came out at 0.332 ± 0.017 with Saccharomyces cerevisiae [1] (setting [9]) and 0.408 ± 0.041 with Saccharomyces cerevisiae [2].

For the sequence VLLMFFFRFSAL, the protein stability index in the series with Saccharomyces cerevisiae [1] (setting [3]) was 0.589 ± 0.053; in the series on Saccharomyces cerevisiae [1] (setting [4]) it was 0.717 ± 0.014; in the series on Saccharomyces cerevisiae [1] (setting [5]) it was 0.545 ± 0.033; with Saccharomyces cerevisiae [1] (setting [6]), 0.685 ± 0.02; with Saccharomyces cerevisiae [1] (setting [7]), 0.483 ± 0.011; with Saccharomyces cerevisiae [1] (setting [8]), 0.491 ± 0.022. The values for the protein stability index in the series on Saccharomyces cerevisiae [1] (setting [9]) and in the series on Saccharomyces cerevisiae [2] were 0.624 ± 0.013 and 0.523 ± 0.049, respectively.

Consider VLVFYFCFSFCS, for which the protein stability index with Saccharomyces cerevisiae [1] (setting [3]) was determined as 0.144 ± 0.013; in the series with Saccharomyces cerevisiae [1] (setting [4]), 0.282 ± 0.043; with Saccharomyces cerevisiae [1] (setting [5]) it was 0.126 ± 0.025; in the series on Saccharomyces cerevisiae [1] (setting [6]) it was 0.297 ± 0.0048; in the series with Saccharomyces cerevisiae [1] (setting [7]), 0.11 ± 0.015; in the series on Saccharomyces cerevisiae [1] (setting [8]), 0.129 ± 0.029. The protein stability index was 0.273 ± 0.016 with Saccharomyces cerevisiae [1] (setting [9]) and 0.205 ± 0.049 in the series with Saccharomyces cerevisiae [2].

As for VLVLSFLYRMVK, the protein stability index in the series with Saccharomyces cerevisiae [1] (setting [3]) is 0.353 ± 0.065; in the series on Saccharomyces cerevisiae [1] (setting [4]) it was 0.4364 ± 0.0007; with Saccharomyces cerevisiae [1] (setting [5]), 0.312 ± 0.054; in the series with Saccharomyces cerevisiae [1] (setting [6]) it was 0.507 ± 0.013; in the series with Saccharomyces cerevisiae [1] (setting [7]), 0.271 ± 0.013; with Saccharomyces cerevisiae [1] (setting [8]), 0.304 ± 0.017. Also, the protein stability index in the series on Saccharomyces cerevisiae [1] (setting [9]) is 0.436 ± 0.032; in the series with Saccharomyces cerevisiae [2] it was 0.376 ± 0.033.

As to VLVSYAIVILYL, the protein stability index in the series on Saccharomyces cerevisiae [1] (setting [3]) is 0.128 ± 0.0017; in the series on Saccharomyces cerevisiae [1] (setting [4]), 0.141 ± 0.03; with Saccharomyces cerevisiae [1] (setting [5]), 0.136 ± 0.043; in the series with Saccharomyces cerevisiae [1] (setting [6]), 0.293 ± 0.029; with Saccharomyces cerevisiae [1] (setting [7]) it was 0.12 ± 0.008; in the series with Saccharomyces cerevisiae [1] (setting [8]) it was 0.149 ± 0.019. Further, the figures for the protein stability index with Saccharomyces cerevisiae [1] (setting [9]) and in the series on Saccharomyces cerevisiae [2] were 0.268 ± 0.026 and 0.193 ± 0.002, respectively.
